Test results: publication PMC12775136

Target: UPF1-Hel (human)

“full-length SLBP (SLBPfl) (from UniProt Q14493 1-270) (natural protein)” was tested, and the extent of linear RNA substrate unwound by UPF1-Hel (fluorescence-based nucleic acid unwinding assay) with SLBPfl at equimolar amount to 3-fold molar excess; further decrease at 3-fold excess was 66%.
